According to publication PMC6534634, “Understanding xylose isomerase from Burkholderia cenocepacia: insights into structure and functionality for ethanol production” (AMB Express, 2019):

T1: XylABc (XylA, xylose isomerase from Burkholderia cenocepacia) (Burkholderia cenocepacia, UniProt B4ENA5)
T1 construct: full-length, synthetic gene in pTrcHis-B, His6 fusion (tag apparently kept), E. coli TOP10, Ni resin + Superdex 200; homotetramer ca. 208 kDa
T1 sequence (B4ENA5 1-440): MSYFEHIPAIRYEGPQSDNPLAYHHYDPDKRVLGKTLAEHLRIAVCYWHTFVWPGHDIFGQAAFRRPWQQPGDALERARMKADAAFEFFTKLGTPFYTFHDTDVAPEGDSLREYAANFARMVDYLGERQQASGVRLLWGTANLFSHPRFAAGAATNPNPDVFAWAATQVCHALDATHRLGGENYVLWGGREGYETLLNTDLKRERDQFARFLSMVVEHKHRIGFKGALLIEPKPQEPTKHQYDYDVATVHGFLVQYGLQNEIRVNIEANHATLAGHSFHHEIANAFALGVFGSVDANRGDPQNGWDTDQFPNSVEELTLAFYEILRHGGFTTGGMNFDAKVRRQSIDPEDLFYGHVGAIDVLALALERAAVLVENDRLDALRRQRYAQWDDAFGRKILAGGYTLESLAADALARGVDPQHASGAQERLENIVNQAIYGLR


How the values were obtained:
[1] = biological target: T1, XylABc (XylA, xylose isomerase from Burkholderia cenocepacia); assay: sorbitol dehydrogenase-coupled NADH oxidation, […] nm; format: biochemical
[2] = biological target: the molecule itself; assay: SDS-PAGE (SDS-resistant oligomer); SDS-PAGE (5% stacking, 12% resolving) after size exclusion; loading dye with 8 M urea, 4% SDS, 100 mM beta-mercaptoethanol; bands identified by LC-MS/MS; dimer beside monomer
[3] = biological target: the molecule itself; assay: native gel or EMSA; non-denaturing 4-20% gradient PAGE of the pooled Superdex 200 peak of His6-XylA, SDS-free sample and running buffers, standards 10-250 kDa; band identified by LC-MS/MS; tetramer

Molecule	IC50 [1] [mM]	stoichiometry N [2]	stoichiometry N [3]
OC[C@@H](O)[C@H](O)[C@@H](O)CO [xylitol]	3.75	–	–
Xylose isomerase from Burkholderia cenocepacia (His6-XylA fusion protein) (enzyme, Burkholderia cenocepacia J2315, UniProt B4ENA5 1-440, looked up, Xylose isomerase XylA of Burkholderia cenocepacia J2315, full-length gene made as synthetic DNA, cloned HindIII/BglII into pTrcHis-B; The fusion has a printed theoretical mass of 53,598.67 Da; also called XylABc; XI; source: E. coli TOP10, purified (Ni2+ resin, Superdex 200)) MSYFEHIPAIRYEGPQSDNPLAYHHYDPDKRVLGKTLAEHLRIAVCYWHTFVWPGHDIFGQAAFRRPWQQPGDALERARMKADAAFEFFTKLGTPFYTFHDTDVAPEGDSLREYAANFARMVDYLGERQQASGVRLLWGTANLFSHPRFAAGAATNPNPDVFAWAATQVCHALDATHRLGGENYVLWGGREGYETLLNTDLKRERDQFARFLSMVVEHKHRIGFKGALLIEPKPQEPTKHQYDYDVATVHGFLVQYGLQNEIRVNIEANHATLAGHSFHHEIANAFALGVFGSVDANRGDPQNGWDTDQFPNSVEELTLAFYEILRHGGFTTGGMNFDAKVRRQSIDPEDLFYGHVGAIDVLALALERAAVLVENDRLDALRRQRYAQWDDAFGRKILAGGYTLESLAADALARGVDPQHASGAQERLENIVNQAIYGLR	–	2	4
